# Results: article PMC8001305
# Legend:
# [1] = test system: 2LTRZFP-GFP (designed six-finger zinc finger protein fused to GFP); test: competition ELISA; details: BLI (BLItz, SA tips): 10 mM Tris-HCl pH 7.5, 90 mM KCl, 1 mM MgCl2, 90 uM ZnSO4, 5 mM DTT, 0.5 mM PMSF, temperature not stated, IN: 1:5 IN reaction buffer …
# [2] = test system: 2LTRZFP-GFP (designed six-finger zinc finger protein fused to GFP); test: competition BLI; details: BLI (BLItz, SA tips): 10 mM Tris-HCl pH 7.5, 90 mM KCl, 1 mM MgCl2, 90 uM ZnSO4, 5 mM DTT, 0.5 mM PMSF, temperature not stated; IN: 1:5 IN reaction buffer …
# [3] = test system: 2LTRZFP-GFP (designed six-finger zinc finger protein fused to GFP); test: BLI; details: BLI (BLItz, SA tips): 10 mM Tris-HCl pH 7.5, 90 mM KCl, 1 mM MgCl2, 90 uM ZnSO4, 5 mM DTT, 0.5 mM PMSF, temperature not stated; IN: 1:5 IN reaction buffer …
# [4] = target: HIV-1 integrase (IN) (HIV-1) (UniProt P12497); test: BLI; details: BLI (BLItz, SA tips): 10 mM Tris-HCl pH 7.5, 90 mM KCl, 1 mM MgCl2, 90 uM ZnSO4, 5 mM DTT, 0.5 mM PMSF, temperature not stated; IN: 1:5 IN reaction buffer …
Sequence,"inhibition of binding to immobilized ds2LTR ([1]; 2 uM dsNeg as competitor against immobilized ds2LTR, OD 1.0 vs 1.3 uninhibited) [% inhibition]",binding signal (nm BLI signal (1.2 without competitor)) [2],binding signal [1] [% inhibition],Kd [3] [nM],Kd [4] [nM],binding signal (nm BLI signal (0.55 without 2LTRZFP-GFP)) [4]
TGACAGTGCTAGCGTATCATCTAGTCGACG (double strand) [dsNeg (30 bp irrelevant DNA)],22,1,,,,
AAATCTCTAGCAGTACTGGATGGGCTAATT (double strand) [ds2LTR (30 bp HIV-1 2-LTR circle junction)],,0.45,62,40,75,0.47
